The record followed here is paper PMC4431178, “Molecular basis of sugar recognition by collectin-K1 and the effects of mutations associated with 3MC syndrome” (BMC Biology, 2015).

In the assay the target is T1, CL-K1 (Homo sapiens, UniProt Q9BWP8).
T1 construct: For full-length protein, the cDNA was cloned into the polylinker region of expression vector pED; made in house; host or cells: Chinese hamster ovary cells
In words: Surface plasmon resonance of CL-K1 binding to glycoproteins. Particulars: glycoprotein starting concentration 200 nM. On the procedure:
Figure 1 Glycoprotein binding and complement activation by CL-K1. A) Immunoblot of CL-K1 binding to immobilised mammalian and yeast glycoproteins. B) Surface plasmon resonance of CL-K1 binding to glycoproteins. […] C3b and its breakdown products were detected by absorbance using an anti-human C3c antibody with alkaline phosphatase-conjugated goat anti-rabbit secondary antibody and p-nitrophenyl phosphate as the substrate. Protein concentrations were calculated based on the molecular masses of CL-K1 and MBL trimers (78 kDa in each case). CL-K1, collectin-K1; MBL, mannan-binding lectin.
CL-K1 was immobilised on the surface of a GLM sensor chip (Bio-Rad Laboratories Ltd (Hemel Hempstead, UK)) by amine coupling. Binding was measured in 10 mM Tris–HCl, pH 7.4 containing 140 mM NaCl, 2 mM CaCl2 and 0.005% Tween 20 at a flow rate of 25 μl/minute and at 25°C. The protein surface was regenerated in buffer containing 1 M NaCl and 5 mM EDTA.
For orientation: In SPR one partner is held on a chip, and binding of the other changes the refractive index at the surface.

T1 sequence (Q9BWP8 26-271): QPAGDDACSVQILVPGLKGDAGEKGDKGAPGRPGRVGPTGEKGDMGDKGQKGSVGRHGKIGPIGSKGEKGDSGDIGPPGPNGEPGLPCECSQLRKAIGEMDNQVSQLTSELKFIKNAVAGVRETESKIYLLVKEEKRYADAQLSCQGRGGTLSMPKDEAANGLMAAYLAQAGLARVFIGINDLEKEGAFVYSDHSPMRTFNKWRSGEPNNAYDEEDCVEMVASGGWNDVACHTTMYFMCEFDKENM

B1: milk lactoferrin: human milk lactoferrin, contains complex sugars (protein, UniProt P02788 20-710, looked up)
Lactotransferrin: GRRRSVQWCAVSQPEATKCFQWQRNMRKVRGPPVSCIKRDSPIQCIQAIAENRADAVTLDGGFIYEAGLAPYKLRPVAAEVYGTERQPRTHYYAVAVVKKGGSFQLNELQGLKSCHTGLRRTAGWNVPIGTLRPFLNWTGPPEPIEAAVARFFSASCVPGADKGQFPNLCRLCAGTGENKCAFSSQEPYFSYSGAFKCLRDGAGDVAFIRESTVFEDLSDEAERDEYELLCPDNTRKPVDKFKDCHLARVPSHAVVARSVNGKEDAIWNLLRQAQEKFGKDKSPKFQLFGSPSGQKDLLFKDSAIGFSRVPPRIDSGLYLGSGYFTAIQNLRKSEEEVAARRARVVWCAVGEQELRKCNQWSGLSEGSVTCSSASTTEDCIALVLKGEADAMSLDGGYVYTAGKCGLVPVLAENYKSQQSSDPDPNCVDRPVEGYLAVAVVRRSDTSLTWNSVKGKKSCHTAVDRTAGWNIPMGLLFNQTGSCKFDEYFSQSCAPGSDPRSNLCALCIGDEQGENKCVPNSNERYYGYTGAFRCLAENAGDVAFVKDVTVLQNTDGNNNEAWAKDLKLADFALLCLDGKRKPVTEARSCHLAMAPNHAVVSRMDKVERLKQVLLHQQAKFGRNGSDCPDKFCLFQSETKNLLFNDNTECLARLHGKTTYEKYLGPQYVAGITNLKKCSTSPLLEACEFLRK
With B1, the “binding to CL-K1 by surface plasmon resonance” value was “not”.
